In article PMC7356358 (Biomolecules, 2020):
Where two headings read alike, the source gives them in different places.

How the values were obtained:
[1] = tested on: PfHsp70-1; test: Interaction of PfHsp40 with PfHsp70-1 by MP-SPR; type: binding, Plasmodium falciparum
[2] = tested on: KPf; conditions: MP-SPR, PfHsp40 over immobilized KPf, three runs
Description: The analysis was conducted both in the absence and presence of 5 mM of ATP/ADP. The ligand and analyte pairs were swapped, and the data generated were analyzed after global fitting. Association was allowed for 2 min, and dissociation was monitored for 8 min. Data analysis was conducted using TraceDrawer software version 1.8 (Ridgeview Instruments).

[3] = ATPase activity (released inorganic phosphate); type: biochemical; conditions: PfHsp40 preparation alone, non-ATPase control
Description: Hsp70 proteins at final concentration of 0.4 μM were each incubated for 5 min in buffer HKMD (10 mM HEPES-KOH pH 7.5, 100 mM KCl, 2 mM MgCl2 and 0.5 mM DTT). The reaction was initiated by the addition of ATP at various concentrations (0–5 mM) and samples were analyzed every 30 min for 4 h.

[4] = biological target: DnaK (Escherichia coli, UniProt P0A6Y8); conditions: MP-SPR, PfHsp40 over immobilized DnaK, three runs
Sequence of DnaK (P0A6Y8 whole entry): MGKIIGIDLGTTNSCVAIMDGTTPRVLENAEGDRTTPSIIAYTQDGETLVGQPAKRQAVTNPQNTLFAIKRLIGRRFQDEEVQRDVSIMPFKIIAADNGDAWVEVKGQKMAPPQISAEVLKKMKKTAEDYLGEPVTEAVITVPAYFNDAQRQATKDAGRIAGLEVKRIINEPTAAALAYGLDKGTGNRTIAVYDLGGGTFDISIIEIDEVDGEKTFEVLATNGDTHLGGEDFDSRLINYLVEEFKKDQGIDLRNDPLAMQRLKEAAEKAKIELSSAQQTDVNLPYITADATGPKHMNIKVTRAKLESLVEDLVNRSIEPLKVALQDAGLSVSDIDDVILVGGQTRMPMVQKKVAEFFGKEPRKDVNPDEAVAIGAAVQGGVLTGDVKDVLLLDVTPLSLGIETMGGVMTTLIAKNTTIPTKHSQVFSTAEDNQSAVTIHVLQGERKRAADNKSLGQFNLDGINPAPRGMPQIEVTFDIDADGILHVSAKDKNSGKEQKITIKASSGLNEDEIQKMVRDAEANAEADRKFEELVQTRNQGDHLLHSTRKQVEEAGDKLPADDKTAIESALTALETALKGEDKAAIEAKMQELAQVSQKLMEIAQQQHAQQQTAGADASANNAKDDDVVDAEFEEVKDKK

Sequence of PfHsp70-1 (P11144 1-630 limits assumed): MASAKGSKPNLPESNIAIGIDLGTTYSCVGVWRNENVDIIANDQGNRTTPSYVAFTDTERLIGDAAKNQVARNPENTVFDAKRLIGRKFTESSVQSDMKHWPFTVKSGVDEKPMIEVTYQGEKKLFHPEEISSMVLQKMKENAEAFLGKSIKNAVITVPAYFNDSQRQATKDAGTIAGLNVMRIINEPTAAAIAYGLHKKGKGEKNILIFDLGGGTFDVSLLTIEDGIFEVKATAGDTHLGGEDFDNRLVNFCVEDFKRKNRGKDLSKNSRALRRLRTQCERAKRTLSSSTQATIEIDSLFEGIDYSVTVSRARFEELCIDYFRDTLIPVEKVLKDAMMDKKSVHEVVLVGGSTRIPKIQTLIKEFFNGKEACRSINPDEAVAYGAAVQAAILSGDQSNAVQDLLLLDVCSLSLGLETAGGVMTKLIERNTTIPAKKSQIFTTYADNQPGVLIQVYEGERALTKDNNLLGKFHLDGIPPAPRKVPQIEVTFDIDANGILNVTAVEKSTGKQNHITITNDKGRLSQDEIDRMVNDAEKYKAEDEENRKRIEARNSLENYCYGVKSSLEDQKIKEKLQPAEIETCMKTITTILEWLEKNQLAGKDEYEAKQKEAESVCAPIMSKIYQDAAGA
Sequence of KPf (P11144 405-631 limits assumed): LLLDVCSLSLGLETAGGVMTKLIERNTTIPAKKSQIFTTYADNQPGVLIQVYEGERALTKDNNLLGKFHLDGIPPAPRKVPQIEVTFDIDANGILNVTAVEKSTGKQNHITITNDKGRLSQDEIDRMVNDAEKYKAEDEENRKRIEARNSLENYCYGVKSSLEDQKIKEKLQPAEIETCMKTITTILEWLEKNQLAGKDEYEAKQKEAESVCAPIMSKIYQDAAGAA

B1: PfHsp40: P. falciparum type I Hsp40 (PF3D7_1437900), co-chaperone of PfHsp70-1 (protein)
chain: MFFSSGFPFDSMGGQQARRKREVNNNKFYEVLNLKKNCTTDEVKKAYRKLAIIHHPDKGGDPEKFKEISRAYEVLSDEEKRKLYDEYGEEGLENGEQPADATDLFDFILNAGKGKKKRGEDIVSEVKVTLEQLYNGATKKLAISKDIICTNCEGHGGPKDAKVDCKQCNGRGTKTYMRYHSSVLHQTEVTCNTCRGKGKIFNEKDKCANCKGMCVLKTRKIIEVYIPKGAPNKHKIVFNGEADEKPNVITGNLVVILNEKQHPVFRREGIDLFMNYKISLYESLTGFVAEVTHLDERKILVNCTNSGFIRHGDIREVLDEGMPTYKDPFKKGNLYITFEVEYPMDLIITNENKEVLKILKKQNEVEKKYDLENSELEVVSCSPVDKEYIKVRVTKQQQQQQQEAYDDEDHQPEMEGGRVACAQQ
modifications: left off: His6, N-terminal, state not stated
- Ka ([1]; PfHsp40 over immobilized PfHsp70-1, + 5 mM ADP, three runs): 1.53 (±0.03) × 10^3 Ms^−1
- Ka ([1]; PfHsp40 over immobilized PfHsp70-1, no nucleotide, three runs): 1.33 (±0.03) × 10^3 Ms^−1
- Ka ([1]; analyte PfHsp40 0-2000 nM over immobilized PfHsp70-1, + 5 mM ATP, global fit, mean (SD) of three runs): 1.81 (±0.01) × 10^2 Ms^−1
- Ka ([2]; + 5 mM ADP): 1.36 (±0.26) × 10^2 Ms^−1
- Ka ([2]; + 5 mM ATP): 1.72 (±0.02) × 10^2 Ms^−1
- Ka ([2]; no nucleotide): 1.24 (±0.04) × 10^4 Ms^−1
- independent basal ATPase activity [3]: no detectable
- Ka ([4]; + 5 mM ADP): 1.16 (±0.06) × 10^2 Ms^−1
- Ka ([4]; + 5 mM ATP): 1.22 (±0.02) × 10^2 Ms^−1
- Ka ([4]; no nucleotide): 1.12 (±0.02) × 10^2 Ms^−1
